Non-standard residues stand in square brackets, D forms with d. No end group written: not given here. pT = C[C@@H](OP(=O)(O)O)[C@H](N)C(=O)O; pS = N[C@@H](COP(=O)(O)O)C(=O)O
Experiments:
[1] = target: Pin1 WW domain (Pin1WW, residues 1–41) (human, UniProt Q13526 1-41); test: NMR titration
full-length Pin1 = full-length Pin1 (human, UniProt Q13526 1-163); test: NMR titration
Sequence of full-length Pin1 (Q13526 whole entry): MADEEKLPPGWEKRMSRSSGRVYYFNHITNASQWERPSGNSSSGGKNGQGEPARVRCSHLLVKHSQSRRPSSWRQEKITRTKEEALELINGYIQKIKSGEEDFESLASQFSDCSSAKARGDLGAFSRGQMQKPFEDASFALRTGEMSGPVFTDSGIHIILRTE

Sequence of Pin1 WW domain (Pin1WW, residues 1–41) (Q13526 1-41): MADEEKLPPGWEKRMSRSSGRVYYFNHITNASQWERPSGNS

Binder: KATGAA[pT]PKKSAKW [histone H1.4 phosphopeptide KATGAApTPKKSAKW]
- Kd [1]: 111 µM
- Kd (full-length Pin1): 180 µM

Binder: KKAVK[pS]PAKAKAW [histone H1.1 phosphopeptide KKAVKpSPAKAKAW]
- Kd [1]: 890 µM
- Kd (full-length Pin1): 500 µM

Source: paper PMC6431256 (Biochemistry, 2018)
